US20060057665A1, “Galectin-14 therapeutic molecule and uses thereof” (The University of Melbourne, priority 2001, published 2006)

How the values were obtained:
[1] = test system: rabbit erythrocytes; test: Hemagglutination assay on trypsin-treated, glutaraldehyde fixed rabbit erythrocytes; format: cell-based; details: for stability of agglutination activity upon storage: even in the presence of reducing agents
Description: Trypsin-treated, glutaraldehyde fixed rabbit erythrocytes were prepared and tested in an agglutination assay according to the method of Nowak et al. (Nowak et al. (1976) supra). Agglutination assays were performed in 96-well V-shaped microtiter plates with serial 2-fold dilutions of samples in 25 μl of DES (0.15 M NaCl, 2 mM EDTA, 2 mM dithiothreitol), 50 μl of 0.5% (w/v) BSA in 0.15 M NaCl and 25 μl of a 4% suspension of rabbit erythrocytes. The plates were shaken vigorously for 30 s, and agglutination was read after the plates had stood at room temperature for 1 h. Agglutinated erythrocytes formed a “mat” on the bottom of the well. For assessment of the inhibitory effects of saccharides, lactose, galactose, and N-acetyl-glucosamine were serially diluted in 25 μl of 0.15 M NaCl prior to the addition of recombinant protein in DES, 25 μl of 1% (w/v) BSA in 0.15 M NaCl, and 4% erythrocytes in PBS. The minimum concentration of GST-galectin-14 that gave mat formation (0.28 μM) was used in the saccharide inhibition assay. For assessment of the effects of antibody on GST-galectin-14 hemagglutination, ascites and supernatants from monoclonal antibodies and polyclonal rabbit sera all raised to recombinant galectin-14 were serially diluted in 25 μl of 0.15 M NaCl prior to the addition of recombinant protein in DES, 25 μl of 1% (w/v) BSA in 0.15 M NaCl, and 4% erythrocytes in PBS. A different batch of GST-galectin-14, which produced mat formation at a minimum concentration of 0.059 μM, was used at 0.059 μM and 0.042 μM to measure both inhibition and potentiation of agglutination by antibodies.

[2] = target: T1, laminin from Engelbreth-Holm-Swarm murine sarcoma (Mus musculus, UniProt P02468+P02469+P19137); test: Solid-phase laminin binding assay; details: serial dilutions; detected with anti-GST HRP antibody, absorbance 450 nm
T1 construct: laminin from Engelbreth-Holm-Swarm murine sarcoma (Sigma); purchased Sigma; host or cells: Engelbreth-Holm-Swarm murine sarcoma (tissue-derived)
Description: FIG. 17 is an image of the saturation binding of GST-galectin-14 fusion protein to immobilised laminin. Laminin binding of GST-galectin-14 fusion protein was assayed using a solid-phase binding assay in a 96-well microtitre plate. Serial dilutions of GST-galectin-14 (▪) and GST (▴) were added to microtitre wells containing laminin. 0.3 M Lactose was added to GST-galectin-14 to inhibit binding (◯). The level of bound protein was monitored by the binding of rabbit anti-GST HRP antibody developed with TMB substrate and detected by a change in absorbance at 450 nm.
Laminin binding activity was measured according to the method of Mazurek et al. with some modification. Briefly, the wells of a 96-well microtitre plate were coated with laminin from Engelbreth-Holm-Swarm murine sarcoma (Sigma) at 1 μg/100 μl of carbonate coating buffer (15 mM Na2CO3, 35 mM NaHCO3, pH 9.6) per well overnight at 4° C. Non-specific binding sites were blocked with 200 μl of 0.5% Tween 20 in PBS for 1 h. Plates were washed 3 times in 0.05% Tween 20 PBS and incubated with 50 μl serial dilutions of GST-galectin-14 or GST alone, diluted in 0.5% Tween 20 PBS, for 1.5 h at 37° C. Control wells contained 0.3 M lactose. […] The reaction was terminated with 100 μl 2 M sulphuric acid and the colour change monitored using a dual wavelength mode plate reader (Bio-tek instruments) at 450 nm, ref 690 nm.

[3] = SDS-PAGE and Western blot analysis of recombinant galectin-14 after storage; format: physicochemical; details: storage at high concentrations; reducing conditions
Description: FIG. 10 is an image of SDS-PAGE and Western blot analysis of recombinant galectin-14 and endogenous proteins. […] The arrow points to the position of monomeric galectin-14. All samples were run under reducing conditions. […] Membranes were incubated with mAb supernatant for 2 h at room temperature, followed by incubation with secondary antibody, horseradish peroxidase-conjugated rabbit anti-mouse Ig (Dako, Carpinteria, Calif.), for at least 1 h at room temperature. Signals were detected using 1.5 mM 3,3′-diaminobenzidine tetrahydrochloride (DAB; Sigma), or ECL (Amersham Pharmacia Biotech).

Molecule | maximum concentration which did not induce agglutination ([1]; batch used in the antibody potentiation assay) | minimum concentration that gave mat formation (agglutination) ([1]; batch used in the saccharide inhibition assay) | minimum concentration that produced mat formation (agglutination) ([1]; different batch, used in the antibody assays) | stability of agglutination activity upon storage [1] | binding to immobilised laminin [2] | minimum concentration exhibiting agglutination activity on rabbit erythrocytes ([1]; fresh cleaved and purified recombinant protein) | self-aggregation after storage [3]
GST-galectin-14: Recombinant galectin-14 expressed in E. coli BL-21 as a GST fusion protein (pGEX-6P-2) (protein, left off: a dimerising Fc or GST) MQSESGHEGDEELAFRDTQPPYINLPIPFTGRIEGGLQDGHKVTVMGRVLSTDENRFQVDFQMGISDTNNVAFHFNPRFEGSGYVVCNTMQLGNWGPEEKKMQMPFQKGSLFEICFKVDSSSFKVTVNGSIFLDYAHRLPFEQVNAISIGGCVHVSYISFQI | 0.042 µM | 0.28 µM | 0.059 µM | did not deteriorate upon storage | bound to laminin in a dose dependent manner |  | 
galectin-14: Ovine proto-type galectin, amino acid sequence <400>2; recombinant form cleaved from GST fusion, with 5 additional N-terminal amino acids (protein) MQSESGHEGDEELAFRDTQPPYINLPIPFTGRIEGGLQDGHKVTVMGRVLSTDENRFQVDFQMGISDTNNVAFHFNPRFEGSGYVVCNTMQLGNWGPEEKKMQMPFQKGSLFEICFKVDSSSFKVTVNGSIFLDYAHRLPFEQVNAISIGGCVHVSYISFQI |  |  |  | rapidly lost upon storage |  | 0.16 µM | often self-aggregates into oligomers
